Assays:
HLA-A*02:01 [1] = test: IEDB peptide-MHC binding, cellular MHC/competitive/fluorescence; ≥ and ≤ were set here for values at or beyond the usual limits of such assays; settings: source organism: Homo sapiens
HLA-B*27:05 [2] = test: IEDB peptide-MHC binding, purified MHC/competitive/fluorescence; ≥ and ≤ were set here for values at or beyond the usual limits of such assays; settings: source organism: hepatitis C virus genotype 1a
HLA-B*40:02 = test: IEDB peptide-MHC binding, cellular MHC/competitive/fluorescence; ≥ and ≤ were set here for values at or beyond the usual limits of such assays; settings: source organism: Homo sapiens
HLA-C*12:03 = test: IEDB peptide-MHC binding, purified MHC/direct/fluorescence; filed as Kd, often an IC50 or EC50 that approximates it; ≥ and ≤ were set here for values at or beyond the usual limits of such assays; settings: source organism: Brucella abortus bv. 1 str. 9-941
HLA-B*58:01 [3] = test: as above; settings: source organism: Brucella abortus
HLA-A*02:19 = test: as above; settings: source organism: Brucella suis 1330
HLA-B*44:02 = test: as above; settings: source organism: Brucella abortus
HLA-A*02:12 = test: as above; settings: source organism: Brucella suis 1330
HLA-A*69:01 [4] = test: as above; settings: source organism: Brucella abortus
HLA-B*40:01 [5] = test: as above; settings: source organism: Brucella abortus
HLA-B*08:01 = test: as above; settings: source organism: Brucella suis 1330
HLA-A*31:01 [6] = test: as above; settings: source organism: Brucella abortus
HLA-A*02:01 [7] = test: as above; settings: source organism: Brucella abortus
HLA-B*15:01 [8] = test: as above; settings: source organism: Brucella abortus
HLA-A*02:11 = test: as above; settings: source organism: Brucella suis 1330
HLA-A*26:01 = test: as above; settings: source organism: Brucella suis 1330
HLA-B*27:05 [9] = test: as above; settings: source organism: Brucella abortus
HLA-B*07:02 = test: as above; settings: source organism: Brucella abortus
HLA-A*02:03 [10] = test: as above; settings: source organism: Brucella suis 1330
HLA-A*01:01 [11] = test: as above; settings: source organism: Brucella abortus
HLA-A*03:01 [12] = test: as above; settings: source organism: Brucella abortus
HLA-A*11:01 [13] = test: as above; settings: source organism: Brucella abortus
HLA-B*45:06 = test: IEDB peptide-MHC binding, purified MHC/competitive/fluorescence; filed as Kd, often an IC50 or EC50 that approximates it; ≥ and ≤ were set here for values at or beyond the usual limits of such assays; settings: source organism: Mycobacterium tuberculosis variant bovis BCG str. Pasteur 1173P2
HLA-A*30:01 = test: as above; settings: source organism: Mycobacterium tuberculosis variant bovis BCG str. Pasteur 1173P2
HLA-B*58:01 [14] = test: as above; settings: source organism: Mycobacterium tuberculosis variant bovis BCG str. Pasteur 1173P2
HLA-B*18:01 = test: as above; settings: source organism: Mycobacterium tuberculosis variant bovis BCG str. Pasteur 1173P2
HLA-B*51:01 = test: as above; settings: source organism: Mycobacterium tuberculosis variant bovis BCG str. Pasteur 1173P2
HLA-A*69:01 [15] = test: as above; settings: source organism: Mycobacterium tuberculosis variant bovis BCG str. Pasteur 1173P2
HLA-B*40:01 [16] = test: as above; settings: source organism: Mycobacterium tuberculosis variant bovis BCG str. Pasteur 1173P2
HLA-B*48:01 = test: as above; settings: source organism: Mycobacterium tuberculosis variant bovis BCG str. Pasteur 1173P2
HLA-B*15:09 = test: as above; settings: source organism: Mycobacterium tuberculosis variant bovis BCG str. Pasteur 1173P2
HLA-B*39:01 = test: as above; settings: source organism: Mycobacterium tuberculosis variant bovis BCG str. Pasteur 1173P2
HLA-A*31:01 [17] = test: as above; settings: source organism: Mycobacterium tuberculosis variant bovis BCG str. Pasteur 1173P2
HLA-A*02:01 [18] = test: as above; settings: source organism: Mycobacterium tuberculosis variant bovis BCG str. Pasteur 1173P2
HLA-B*15:17 = test: as above; settings: source organism: Mycobacterium tuberculosis variant bovis BCG str. Pasteur 1173P2
HLA-B*15:42 = test: as above; settings: source organism: Mycobacterium tuberculosis variant bovis BCG str. Pasteur 1173P2
HLA-B*46:01 = test: as above; settings: source organism: Mycobacterium tuberculosis variant bovis BCG str. Pasteur 1173P2
HLA-B*35:01 = test: as above; settings: source organism: Mycobacterium tuberculosis variant bovis BCG str. Pasteur 1173P2
HLA-B*15:01 [19] = test: as above; settings: source organism: Mycobacterium tuberculosis variant bovis BCG str. Pasteur 1173P2
HLA-B*57:01 = test: as above; settings: source organism: Mycobacterium tuberculosis variant bovis BCG str. Pasteur 1173P2
HLA-B*27:05 [20] = test: as above; settings: source organism: Mycobacterium tuberculosis variant bovis BCG str. Pasteur 1173P2
HLA-A*02:06 = test: as above; settings: source organism: Mycobacterium tuberculosis variant bovis BCG str. Pasteur 1173P2
HLA-A*02:03 [21] = test: as above; settings: source organism: Mycobacterium tuberculosis variant bovis BCG str. Pasteur 1173P2
HLA-A*01:01 [22] = test: as above; settings: source organism: Mycobacterium tuberculosis variant bovis BCG str. Pasteur 1173P2
HLA-A*03:01 [23] = test: as above; settings: source organism: Mycobacterium tuberculosis variant bovis BCG str. Pasteur 1173P2
HLA-B*83:01 = test: as above; settings: source organism: Mycobacterium tuberculosis variant bovis BCG str. Pasteur 1173P2
HLA-A*11:01 [24] = test: as above; settings: source organism: Mycobacterium tuberculosis variant bovis BCG str. Pasteur 1173P2
HLA-B*52:01 = test: IEDB peptide-MHC binding, purified MHC/competitive/radioactivity; filed as Kd, often an IC50 or EC50 that approximates it; ≥ and ≤ were set here for values at or beyond the usual limits of such assays; settings: source organism: Homo sapiens

## FLMDFIHQV
HLA-A*02:01 [1]
  IC50: 240 nM

## GSAAICGKY
HLA-B*27:05 [2]
  IC50: 4820 nM

## GSFSRFYSL
HLA-B*40:02
  IC50: 300 nM

## KLYERNTAF
HLA-C*12:03
  Kd: 266 nM
HLA-B*58:01 [3]
  Kd: 284 nM
HLA-A*02:19
  Kd: ≥ 5000 nM
HLA-B*44:02
  Kd: ≥ 20000 nM
HLA-A*02:12
  Kd: 88 nM
HLA-A*69:01 [4]
  Kd: ≥ 20000 nM
HLA-B*40:01 [5]
  Kd: ≥ 20000 nM
HLA-B*08:01
  Kd: 112 nM
HLA-A*31:01 [6]
  Kd: 138 nM
HLA-A*02:01 [7]
  Kd: 286 nM
HLA-B*15:01 [8]
  Kd: 57.8 nM
HLA-A*02:11
  Kd: 9 nM
HLA-A*26:01
  Kd: ≥ 20000 nM
HLA-B*27:05 [9]
  Kd: 325 nM
HLA-B*07:02
  Kd: ≥ 20000 nM
HLA-A*02:03 [10]
  Kd: 27 nM
HLA-A*01:01 [11]
  Kd: ≥ 20000 nM
HLA-A*03:01 [12]
  Kd: 511 nM
HLA-A*11:01 [13]
  Kd: 3990 nM

## KPIPHRTVL
HLA-B*45:06
  Kd: ≥ 5000 nM
HLA-A*30:01
  Kd: 763 nM
HLA-B*58:01 [14]
  Kd: ≥ 20000 nM
HLA-B*18:01
  Kd: ≥ 20000 nM
HLA-B*51:01
  Kd: ≥ 20000 nM
HLA-A*69:01 [15]
  Kd: ≥ 20000 nM
HLA-B*40:01 [16]
  Kd: ≥ 20000 nM
HLA-B*48:01
  Kd: ≥ 20000 nM
HLA-B*15:09
  Kd: 1320 nM
HLA-B*39:01
  Kd: 18.8 nM
HLA-A*31:01 [17]
  Kd: ≥ 20000 nM
HLA-A*02:01 [18]
  Kd: ≥ 20000 nM
HLA-B*15:17
  Kd: ≥ 20000 nM
HLA-B*15:42
  Kd: ≥ 5000 nM
HLA-B*46:01
  Kd: ≥ 20000 nM
HLA-B*35:01
  Kd: 623 nM
HLA-B*15:01 [19]
  Kd: ≥ 20000 nM
HLA-B*57:01
  Kd: ≥ 20000 nM
HLA-B*27:05 [20]
  Kd: ≥ 20000 nM
HLA-A*02:06
  Kd: 2830 nM
HLA-A*02:03 [21]
  Kd: ≥ 20000 nM
HLA-A*01:01 [22]
  Kd: 570 nM
HLA-A*03:01 [23]
  Kd: 2290 nM
HLA-B*83:01
  Kd: 762 nM
HLA-A*11:01 [24]
  Kd: 125 nM

## QQITQTEV
HLA-B*52:01
  Kd: ≥ 30200 nM

Source: the Immune Epitope Database (IEDB)
